# Laboratory results: patent US20240166765A1 (ICONIC THERAPEUTICS, published 2024)
# Columns and labels:
# [1] = molecular target: Relipidated TF (UniProt P13726 33-295, limits assumed); experiment: cell-based or functional assay
# [2] = molecular target: T1, human Tissue Factor on MDA-MB-231 cells (human, UniProt P13726 33-295); experiment: cell-based or functional assay
# [3] = molecular target: T1, human Tissue Factor on MDA-MB-231 cells; experiment: flow cytometry, MDA-MB-231 cells; binding of 20 nM FVII-Fc-Alexa488 (competitor) left at 28 nM Ab
# [4] = molecular target: T1, human Tissue Factor on MDA-MB-231 cells; experiment: flow cytometry, MDA-MB-231 cells; binding of 20 nM FVII-Fc-Alexa488 (competitor) left at 83 nM Ab
# [5] = molecular target: T1, human Tissue Factor on MDA-MB-231 cells; experiment: flow cytometry, MDA-MB-231 cells; binding of 20 nM FVII-Fc-Alexa488 (competitor) left at 250 nM Ab
# [6] = molecular target: T1, human Tissue Factor on MDA-MB-231 cells; experiment: flow cytometry, MDA-MB-231 cells; binding of 20 nM FVII-Fc-Alexa488 (competitor) left at 9.25 nM Ab
# [7] = molecular target: T2, human Tissue Factor (hTF), endogenously expressed on human TF-positive cells (human, UniProt P13726 33-295); experiment: cell-based or functional assay
# [8] = molecular target: T3, Macaca mulatta TF on RF/6A cells (Macaca mulatta, UniProt P13726 33-294 (human entry)); experiment: flow cytometry on Macaca mulatta RF/6A cells
# T3 construct: also called TF-positive Macaca mulatta RF/6A cells; cynomolgus TF (cTF)
# T3 chain: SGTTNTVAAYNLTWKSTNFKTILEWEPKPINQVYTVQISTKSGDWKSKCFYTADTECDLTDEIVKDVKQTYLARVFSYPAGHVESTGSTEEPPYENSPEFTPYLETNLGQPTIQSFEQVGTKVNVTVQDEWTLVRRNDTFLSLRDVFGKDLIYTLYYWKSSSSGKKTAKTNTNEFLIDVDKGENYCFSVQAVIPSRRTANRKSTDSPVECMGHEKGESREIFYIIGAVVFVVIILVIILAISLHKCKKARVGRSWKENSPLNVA
# [9] = molecular target: T4, E. coli-derived TF ECD-His6 (Homo sapiens (Human), UniProt P13726 33-251); experiment: protein ELISA, plate coated with E. coli-derived TF-His
# T4 construct: The OmpA signal is not part of that entry; also called E.coli-derived TF protein; E. coli-derived TF-His
# [10] = molecular target: T5, Expi293-derived human TF ECD-His6 (TF-His) (human, UniProt P13726 33-251); experiment: protein ELISA, plate coated with Expi293-derived TF-His
# T5 construct: Glycosylated TF ECD-His6 made in Expi293 cells and coated on ELISA plates; also called Expi293-derived TF protein
# [11] = molecular target: T2, human Tissue Factor (hTF), endogenously …; experiment: flow cytometry competition on A431 cells, 100 nM unlabelled antibody, competitor 20 nM 25A-Alexa488
# [12] = molecular target: T2, human Tissue Factor (hTF), endogenously …; experiment: flow cytometry competition on A431 cells, 100 nM unlabelled antibody, competitor 20 nM 43Ea-Alexa488
binder,measurement,setting,value
"1F (antibody, V domains shown, Human anti-TF IgG1) VH: EVQLLESGGGLVQPGGSLRLSCAASGFTFSDYAMGWVRQAPGKGLEWVSTISGSGGLTYYADSVKGRFTISRDNSKNTLYLQMNSLRAEDTAVYYCAKAPYGYYMDVWGKGTTVTVSS VL: not shown","TGA % ETP, 10 nM Ab, 10 min pre-incubation",[1],31%
same,"TGA % Peak IIa, 10 nM Ab, 10 min pre-incubation",[1],10%
same,"TGA % Peak IIa, 50 nM Ab, 10 min pre-incubation",[1],7%
same,"TGA % Peak IIa, 100 nM Ab, 10 min pre-incubation",[1],7%
same,"TGA ETP, 10 nM Ab, 10 min pre-incubation",[1],540 nM·min
same,"TGA Lag Time, 10 nM Ab, 10 min pre-incubation",[1],18.8 min
same,"TGA Lag Time, 50 nM Ab, 10 min pre-incubation",[1],27.6 min
same,"TGA Lag Time, 100 nM Ab, 10 min pre-incubation",[1],30.3 min
same,"TGA Peak IIa, 10 nM Ab, 10 min pre-incubation",[1],27 nM
same,"TGA Peak IIa, 50 nM Ab, 10 min pre-incubation",[1],20 nM
same,"TGA Peak IIa, 100 nM Ab, 10 min pre-incubation",[1],17 nM
same,"TGA ttPeak, 10 nM Ab, 10 min pre-incubation",[1],28.6 min
same,"TGA ttPeak, 50 nM Ab, 10 min pre-incubation",[1],38.9 min
same,"TGA ttPeak, 100 nM Ab, 10 min pre-incubation",[1],42 min
same,"% IL8, 2.56 nM Ab",[2],18%
same,"% IL8, 6.4 nM Ab",[2],3%
same,"% IL8, 16 nM Ab",[2],2%
same,"% IL8, 40 nM Ab",[2],2%
same,"% IL8, 100 nM Ab",[2],2%
same,% FVIIa,[3],7%
same,% FVIIa,[4],7%
same,% FVIIa,[5],6%
same,% FVIIa,[6],7%
"anti-TF antibody 1F (antibody, human IgG1, V domains shown, Human IgG1) VH: EVQLLESGGGLVQPGGSLRLSCAASGFTFSDYAMGWVRQAPGKGLEWVSTISGSGGLTYYADSVKGRFTISRDNSKNTLYLQMNSLRAEDTAVYYCAKAPYGYYMDVWGKGTTVTVSS VL: not shown","% GM-CSF, 2.56 nM antibody, MDA-MB-231 cells + FVIIa",[7],27%
same,"% GM-CSF, 6.4 nM antibody, MDA-MB-231 cells + FVIIa",[7],8%
same,"% GM-CSF, 16 nM antibody, MDA-MB-231 cells + FVIIa",[7],6%
same,"% GM-CSF, 40 nM antibody, MDA-MB-231 cells + FVIIa",[7],6%
same,"% GM-CSF, 100 nM antibody, MDA-MB-231 cells + FVIIa",[7],6%
same,EC50,[8],0.17 nM
same,EC50,[9],0.32 nM
same,EC50,[10],0.41 nM
same,% 25A binding,[11],95%
same,% 43Ea binding,[12],77%
"anti-TF antibody 25A (antibody, human IgG1, V domains shown, Human IgG1) VH: QVQLVQSGAEVKKPGASVKVSCKASGYTFDVYGISWVRQAPGQGLEWMGWIAPYNGNTNYAQKLQGRVTMTTDTSTSTAYMELRSLRSDDTAVYYCARDAGTYSPFGYGMDVWGQGTTVTVSS VL: DIQMTQSPSTLSASVGDRVTITCRASQSISSWLAWYQQKPGKAPKLLIYKASSLESGVPSRFSGSGSGTEFTLTISSLQPDDFATYYCQQFQSLPPFTFGGGTKVEIK","% GM-CSF, 2.56 nM antibody, MDA-MB-231 cells + FVIIa",[7],57%
same,"% GM-CSF, 6.4 nM antibody, MDA-MB-231 cells + FVIIa",[7],24%
same,"% GM-CSF, 16 nM antibody, MDA-MB-231 cells + FVIIa",[7],22%
same,"% GM-CSF, 40 nM antibody, MDA-MB-231 cells + FVIIa",[7],19%
same,"% GM-CSF, 100 nM antibody, MDA-MB-231 cells + FVIIa",[7],22%
same,EC50,[8],0.43 nM
same,EC50,[9],0.35 nM
same,EC50,[10],0.54 nM
same,% 25A binding,[11],3%
same,% 43Ea binding,[12],1%
"anti-TF antibody 29E (antibody, human IgG1, V domains shown, Human IgG1) VH: QVQLVESGGGVVQPGRSLRLSCAASGFTFRSYGMHWVRQAPGKGLEWVAVITYDGINKYYADSVEGRFTISRDNSKNTLYLQMNSLRAEDTAVYYCARDGVYYGVYDYWGQGTLVTVSS VL: not shown","% GM-CSF, 2.56 nM antibody, MDA-MB-231 cells + FVIIa",[7],33%
same,"% GM-CSF, 6.4 nM antibody, MDA-MB-231 cells + FVIIa",[7],9%
same,"% GM-CSF, 16 nM antibody, MDA-MB-231 cells + FVIIa",[7],5%
same,"% GM-CSF, 40 nM antibody, MDA-MB-231 cells + FVIIa",[7],6%
same,"% GM-CSF, 100 nM antibody, MDA-MB-231 cells + FVIIa",[7],6%
same,EC50,[8],0.53 nM
same,EC50,[9],0.68 nM
same,EC50,[10],0.98 nM
same,% 25A binding,[11],96%
same,% 43Ea binding,[12],85%
"39A (antibody, V domains shown, Human anti-TF IgG1) VH: QVQLVQSGAEVKKPGSSVKVSCKASGGTFSSNAIGWVRQAPGQGLEWMGSIIPIIGFANYAQKFQGRVTITADESTSTAYMELSSLRSEDTAVYYCARDSGYYYGASSFGMDVWGQGTTVTVSS VL: EIVMTQSPATLSVSPGERATLSCRASQSVSSNLAWYQQKPGQAPRLLIYGASTRATGIPARFSGSGSGTEFTLTISSLQSEDFAVYYCEQYNNLPLTFGGGTKVEIK","TGA % ETP, 10 nM Ab, 10 min pre-incubation",[1],28%
same,"TGA % ETP, 50 nM Ab, 10 min pre-incubation",[1],20%
same,"TGA % Peak IIa, 10 nM Ab, 10 min pre-incubation",[1],9%
same,"TGA % Peak IIa, 50 nM Ab, 10 min pre-incubation",[1],7%
same,"TGA % Peak IIa, 100 nM Ab, 10 min pre-incubation",[1],7%
same,"TGA ETP, 10 nM Ab, 10 min pre-incubation",[1],482 nM·min
same,"TGA ETP, 50 nM Ab, 10 min pre-incubation",[1],346 nM·min
same,"TGA Lag Time, 10 nM Ab, 10 min pre-incubation",[1],20.8 min
same,"TGA Lag Time, 50 nM Ab, 10 min pre-incubation",[1],28.4 min
same,"TGA Lag Time, 100 nM Ab, 10 min pre-incubation",[1],28 min
same,"TGA Peak IIa, 10 nM Ab, 10 min pre-incubation",[1],25 nM
same,"TGA Peak IIa, 50 nM Ab, 10 min pre-incubation",[1],17 nM
same,"TGA Peak IIa, 100 nM Ab, 10 min pre-incubation",[1],17 nM
same,"TGA ttPeak, 10 nM Ab, 10 min pre-incubation",[1],30.7 min
same,"TGA ttPeak, 50 nM Ab, 10 min pre-incubation",[1],38.9 min
same,"TGA ttPeak, 100 nM Ab, 10 min pre-incubation",[1],40.2 min
same,"% IL8, 2.56 nM Ab",[2],52%
same,"% IL8, 6.4 nM Ab",[2],6%
same,"% IL8, 16 nM Ab",[2],2%
same,"% IL8, 40 nM Ab",[2],2%
same,"% IL8, 100 nM Ab",[2],3%
same,% FVIIa,[3],2%
same,% FVIIa,[4],2%
same,% FVIIa,[5],2%
same,% FVIIa,[6],2%
"anti-TF antibody 39A (antibody, human IgG1, V domains shown, Human IgG1) VH: QVQLVQSGAEVKKPGSSVKVSCKASGGTFSSNAIGWVRQAPGQGLEWMGSIIPIIGFANYAQKFQGRVTITADESTSTAYMELSSLRSEDTAVYYCARDSGYYYGASSFGMDVWGQGTTVTVSS VL: EIVMTQSPATLSVSPGERATLSCRASQSVSSNLAWYQQKPGQAPRLLIYGASTRATGIPARFSGSGSGTEFTLTISSLQSEDFAVYYCEQYNNLPLTFGGGTKVEIK","% GM-CSF, 2.56 nM antibody, MDA-MB-231 cells + FVIIa",[7],42%
same,"% GM-CSF, 6.4 nM antibody, MDA-MB-231 cells + FVIIa",[7],8%
same,"% GM-CSF, 16 nM antibody, MDA-MB-231 cells + FVIIa",[7],5%
same,"% GM-CSF, 40 nM antibody, MDA-MB-231 cells + FVIIa",[7],5%
same,"% GM-CSF, 100 nM antibody, MDA-MB-231 cells + FVIIa",[7],7%
same,EC50,[8],0.27 nM
same,EC50,[9],0.34 nM
same,EC50,[10],0.45 nM
same,% 25A binding,[11],99%
"anti-TF antibody 54E (antibody, human IgG1, V domains shown, Human IgG1) VH: QVQLVQSGAEVKKPGASVKVSCKASGYTFANYYMHWVRQAPGQGLEWMGIINPSGGITVYAQKFQGRVTMTRDTSTSTVYMELSSLRSEDTAVYYCARGGSKVAALAFDIWGQGTMVTVSS VL: DIQMTQSPSSLSASVGDRVTITCQASQDISNSLNWYQQKPGKAPKLLIYDASNLETGVPSRFSGSRSGTDFTFTISSLQPEDIATYYCQQYNFHPLTFGGGTKVEIK","% GM-CSF, 2.56 nM antibody, MDA-MB-231 cells + FVIIa",[7],38%
same,"% GM-CSF, 6.4 nM antibody, MDA-MB-231 cells + FVIIa",[7],10%
same,"% GM-CSF, 16 nM antibody, MDA-MB-231 cells + FVIIa",[7],5%
same,"% GM-CSF, 40 nM antibody, MDA-MB-231 cells + FVIIa",[7],5%
same,"% GM-CSF, 100 nM antibody, MDA-MB-231 cells + FVIIa",[7],5%
same,EC50,[8],1.28 nM
same,EC50,[9],0.38 nM
same,EC50,[10],0.96 nM
same,% 25A binding,[11],99%
same,% 43Ea binding,[12],96%
